Data: the supplement of paper PMC9732359
± gives the uncertainty stated by the source.

Assay: protein stability index of a GFP-peptide fusion (yeast GPS) (PSI 1-4); higher = more stable; sorted into four equal gates, so the index is relative within each strain
Outline: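 Sequencing reads from sorted gates were used to score each peptide. The library consisted of tiled 17-residue yeast protein peptides fused downstream of GFP on a Cherry-expressing plasmid, pooled and carried in yeast. Mid-log cultures in leucine-free medium were split into four equal gates by GFP/Cherry ratio, and each gate's plasmids were PCR-amplified and Illumina-sequenced. The protein stability index adds up, over all gates, the read frequency multiplied by the gate number.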

Sequence	protein stability index (doa10∆)	protein stability index (pdr5∆)	protein stability index (san1∆)	protein stability index (ubr1∆)
AYSSRFQTPFRRRREGK [RPL5]	2.9 ± 0.078	2.75 ± 0.068	2.58 ± 0.082	3.04 ± 0.064
GVGKRKVWLDPNETSEI [RPL19A]	3.13 ± 0.23	3.69 ± 0.24	–	3.04 ± 0.29
IASEVLIKQVPRLLGPQ [RPL1A]	2.28 ± 0.13	1.87 ± 0.14	2.27 ± 0.15	1.67 ± 0.068
ADKKDDSESNSEPIDLI [ITC1]	3.05 ± 0.079	3.32 ± 0.087	3.02 ± 0.12	3.35 ± 0.081
KQVQISHHLKADTIDHD [YGL172W/NUP49]	2.91 ± 0.067	3.09 ± 0.053	2.79 ± 0.065	2.92 ± 0.043
AALIASKVYYNLGEYES [RPN2]	1.88 ± 0.077	1.6 ± 0.066	1.33 ± 0.067	1.69 ± 0.051
VYPITLSTDATSADLKS [UBP6]	2.32 ± 0.063	2.53 ± 0.063	2.49 ± 0.078	2.4 ± 0.059
LIYGISDEERDDEDDEH [AAR2]	3.22 ± 0.11	3.05 ± 0.097	3.52 ± 0.066	3.06 ± 0.099
SKGFVFNSVQKKSRSNL [YAR002W/NUP60]	3.03 ± 0.2	–	2.96 ± 0.17	–
VFDKDGNYIKTENATEN [LIN1]	–	–	–	3.72 ± 0.28
LQLSKTPLSIKIMVAEW [SRB8]	2.31 ± 0.17	2.84 ± 0.072	2.69 ± 0.13	3 ± 0.12
VNDNPDIEAGDDDDNNE [DIS3]	3.46 ± 0.19	3.47 ± 0.14	2.73 ± 0.22	3.33 ± 0.089
FYMLNAGIRPKFILALN [RPN1]	2.22 ± 0.16	1.81 ± 0.078	1.78 ± 0.085	1.37 ± 0.058
ISSLIGGFEYFLQPLLL [NUT1]	1.21 ± 0.058	1.27 ± 0.08	1.33 ± 0.16	1.38 ± 0.19
TAAEKKERLTKEAAAVA [RPL8A]	3.25 ± 0.12	2.79 ± 0.16	3.13 ± 0.096	2.89 ± 0.15
EIDDTEAEVTAEVNGGD [BRR2]	3.13 ± 0.088	2.79 ± 0.12	3.01 ± 0.13	3.16 ± 0.065
IKWENAFVSVYSKNNPN [PRP8]	2.11 ± 0.057	2.77 ± 0.05	3.07 ± 0.053	2.61 ± 0.031
HLLRQTNAFLDSLTRAV [SNF2]	2.61 ± 0.061	2.6 ± 0.066	2.69 ± 0.044	2.65 ± 0.033
AHTASVGVVFGSGAANE [COR1]	3.23 ± 0.12	3.29 ± 0.084	3.07 ± 0.1	3.39 ± 0.12
TELTHHLLPRNEWIKAQ [QCR7]	2.37 ± 0.068	2.16 ± 0.073	2.04 ± 0.12	1.85 ± 0.046
EGWPKFQDTLYKKIPLL [QCR10]	2.8 ± 0.087	1.63 ± 0.079	1.85 ± 0.098	1.43 ± 0.069
SQKTKTIQSDLNLSLHK [SMC2]	2.35 ± 0.056	2.3 ± 0.043	2.19 ± 0.071	2.67 ± 0.03
VKYASPNLNMKYRKRQL [FAS2]	3.6 ± 0.14	3.19 ± 0.09	3.02 ± 0.093	2.88 ± 0.068
FVPVPSLAGFHKVQTKL [RPS7A]	2.53 ± 0.075	2.71 ± 0.081	2.52 ± 0.073	2.75 ± 0.088
REILCYSKDAKEIYYTP [FAS2]	2.679 ± 0.024	2.821 ± 0.025	2.701 ± 0.025	2.71 ± 0.019
GHIGAYLIVAGVDPTGS [PUP1]	1.48 ± 0.1	1.83 ± 0.093	1.68 ± 0.16	1.65 ± 0.11
VEYLTRYVAGVQQRYTQ [PRE6]	1.47 ± 0.065	1.89 ± 0.086	1.65 ± 0.09	1.66 ± 0.1

Sequence	protein stability index (doa10∆)	protein stability index (pdr5∆)	protein stability index (san1∆)	protein stability index (ubr1∆)
DVDPEFYLKYVDIRVGK [RET1]	3.31 ± 0.28	2.79 ± 0.16	2.4 ± 0.14	2.54 ± 0.1
DQMVVGWYHSHPGFGCW [RPN11]	2.57 ± 0.079	2.92 ± 0.063	2.37 ± 0.069	2.21 ± 0.087
KQERSKQERLKENEESL [PRP28]	3.21 ± 0.2	3.62 ± 0.17	3.22 ± 0.13	3.31 ± 0.11
IRNVLVTVDQYVNVAIS [SSN2]	1.21 ± 0.044	1.25 ± 0.058	1.29 ± 0.089	1.39 ± 0.058
MKTPSLTVYLEPGHAAD [RPO21]	3.01 ± 0.092	2.7 ± 0.079	2.9 ± 0.059	3 ± 0.073
NITDYETHPDNSNKQAV [BRR2]	2.81 ± 0.047	3 ± 0.045	2.73 ± 0.037	2.9 ± 0.034
NSLIEEINERSETQTKD [YCG1]	3.07 ± 0.12	3.33 ± 0.12	3.17 ± 0.087	2.97 ± 0.1
VWGSETVASSKVGYTLP [RPL4A]	3.03 ± 0.059	3.15 ± 0.049	3.14 ± 0.034	3.156 ± 0.031
THKVTDIYSHEYKVITS [YMR129W/POM152]	1.71 ± 0.065	1.97 ± 0.082	2.38 ± 0.089	2.13 ± 0.064
NLLESITKLLEINLSKI [YCS4]	2.73 ± 0.057	2.55 ± 0.043	2.94 ± 0.036	2.77 ± 0.034
KRAEKKAKERLQALKAN [SNF2]	2.72 ± 0.12	2.6 ± 0.15	1.73 ± 0.12	1.3 ± 0.048
CLENARSQISEKDAKIN [SIR4]	3.09 ± 0.078	3.23 ± 0.081	3.13 ± 0.066	2.98 ± 0.064
PVKSIRARLKGKEGRIR [RPO21]	3.36 ± 0.091	3.22 ± 0.11	3.33 ± 0.085	2.94 ± 0.079
ISLRNNHKIIARVKAFD [SMD2]	1.79 ± 0.044	2.02 ± 0.038	2.49 ± 0.051	2 ± 0.041
VTKDTKKYSSKNKYGEI [SRP68]	2.82 ± 0.11	2.66 ± 0.099	2.52 ± 0.086	2.77 ± 0.068
RYWVQKERSDGKRHIFD [CDC53]	2.49 ± 0.2	2.98 ± 0.26	3.46 ± 0.13	2.91 ± 0.14
TAFQTQRTAQDRVQQDS [YML031W/NDC1]	2.94 ± 0.086	2.62 ± 0.075	3.26 ± 0.076	2.35 ± 0.079
ILEDYCYFRDFEYCRID [ISW2]	2.56 ± 0.13	1.35 ± 0.077	1.4 ± 0.11	1.35 ± 0.038
DPFKTSSFNKRSKFLST [IRR1]	2.15 ± 0.074	2.46 ± 0.053	2.04 ± 0.082	2.12 ± 0.057
NGKVQYFLRRQYILQIV [YJL039C/NUP192]	1.42 ± 0.054	1.56 ± 0.07	1.33 ± 0.18	1.45 ± 0.053
GDDVVNDVQGIDDVQTI [RPP1]	3.2 ± 0.15	3.46 ± 0.14	3.42 ± 0.067	3.18 ± 0.081
RADTMDFKTDVDEPMTS [YJL039C/NUP192]	3.26 ± 0.087	3.28 ± 0.089	3.25 ± 0.11	3.3 ± 0.066
VKKVVKEQTEAAKKSEK [RPL34A]	3.37 ± 0.14	3.4 ± 0.1	3.19 ± 0.038	3.31 ± 0.076
EIAQANSRNAIRKLVKN [RPL19A]	2.9 ± 0.15	3.01 ± 0.083	2.86 ± 0.11	3.1 ± 0.098
CSHCGCVYVPNFNASLQ [SNM1]	3.36 ± 0.11	2.42 ± 0.11	3.13 ± 0.16	1.51 ± 0.1
EERERKDQYVPEVSALD [RPS17A]	2.91 ± 0.082	3.13 ± 0.057	3.17 ± 0.042	2.82 ± 0.049
